These results are taken from publication doi:10.1101/2023.01.09.523197.

The target in this assay is M. tuberculosis RNA polymerase holoenzyme (M. tuberculosis) (UniProt P9WGZ1). Nature of the assay: single-molecule fluorescence.

“M. tuberculosis GlnR C60SL147C labelled with Alexa Fluor 647 (from UniProt O53830 1-255) (natural protein)” showed a stoichiometry N of 4.

Broadly, the stoichiometry N is a count of units in the complex or per binding partner.
